Data taken from the DeepSol protein solubility set.

Experiment: soluble on expression in E. coli; label from the status in PepcDB or PDB records
For “MEFTLTREKQMIKEMVRDFAEKEIAPKAVYYDKTAEFPYETFQKMGELGLLGIPFPEEYGGSGGDTVSYALAVEEIGRACGGTGLSYAATISLGASPIYYFGTEEQKQKYLVPMASGKTLGAFGLTEPNAGSDAGGTQTKAILDGDEYVISGEKCWITNAEYANTIIVTAVNGIEENGRKRISAFIVPTTSEGLTISSPYDKMGVRASNTCEIVLDGVRVPKENILGDVNKGFKQFLYTLDGGRISIAVLAVGIAQSAFERALQYAKERQQFGKAISNFQAIQFKLADMATEVELARNLVHKAAWLKDNDKPFGKEAAMAKLFASEAASRIANQAVQIHGGYGYMREYEVERHIRDAKLLEIGEGTSEIQRLVIARHLGCR”, the “soluble on expression in E. coli” value was “not soluble”. In the case of “MEFYGPITGEKFAFLLFRDNGEVIEFNHWSQVKEYKSELKISKSSIQIFLRNGCVYPPYTIYSNVLMLPIGTKLTIDIKNDIFKWENNFCFLDRHSKQDSKPSTSKLKTLIANSFAHLKKEVKPIYMMQSAGKDSTAMLLGLHEQGIQNVHCVTYEANFRDTESDAAKKIAESLGFEHTILFPNYEAEFDALLEYQENAVSITGDFSMLPYIAANKSVFKSDSLVIDGLGNDLYMGYVSNKLERSIMKCSLGNFSYLEPSKFTSNEVINYAISSIFMKPYERLFPGTRLSSSEIENFTDNKFIDDDAIYFSKQYNNLDKDDFRAAIRARFCDSTMFQMKAELTTNSFGNEVYFPFSNKELVDYYFNLPIEERYDKANSCNKTLLRSMLNEYVEVDDFFKVKSGFRYNMPEFITINKEKIKKEIIECDLLEQDYSNRFFAKHLDVQKVNYTSACKAYILLVFASWRNRNKLAVVDGHVADKFDWY”, the “soluble on expression in E. coli” value is reported as “not soluble”. With “MEGGGAKDGSAAAAQTRGSGDDGSHKPLPPCCLKAKAAAAESEAKCHATVVSGWFTEPRSHSGKTSKVQYFNNPMWPGEAHSLKVENILYQGKSPYQEILVFESSTYGNVLVLDGIVQLTEKDECAYQEMVTHLPLCSIPSPKSVLVVGGGDGGVLREIARHASVENIDICEIDQLVIDVCKDFFPQLSVGFKDPRVQLHVGDAVDFLRNAPEGKYDAIIVDSSDPIGPAQELVEKPFFQTIARALKPGGVLCNQAESMWLHTHLIQDMLSICRETFKGAVHYAWTSVPTYPSGVIGFLLCAKEGPAVNFLSPVNPIEKLEGAMEAGREIRFYNSEVHRAAFVLPTFVRRELESHNTCAEKDKSETKPVAKPKKMKIMPNSAIPTAS” the “soluble on expression in E. coli” value was “not soluble”. In the case of “MEGLFNAIKDTVTAAINNDGAKLGTSIVSIVENGVGLLGKLFGF”, the “soluble on expression in E. coli” value is reported as “soluble”. With “MEGLTPEMQREAEALRREWETNPRWKGVRRDYRPEDVVRLRPSVMVEYTLAKRGAEKLWKLLHERPYVHTFGAYTGAMAVEMVRAGLEAIYLSGWQVAADANLAWQTYPDQSLYPYNSVPQIVKRINNALMRADQVERIEGRVTRDWYVPIVADAEAGFGGALNVFELTKAMIEAGAAGIHYEDQLASEKKCGHLGGKVLVPTGQHIRTLQAARLAADVMGVPTVIIARTDAEAATLITSDIDERDKPFILPDERTPEGFYRFKNGIEAGIARALAYAPYADVIWMETSKPDLEEARKFAEAVKKEFPDKLLAYNLSPSFNWKKFLDDETIAKFNRELGEMGYKFQFITLAGWHALNYYIWELAKGYKERGMPAFVELQQKEFAAQKEGFTAVKHQREVGAGYFDEVVLALTQGQASTLALKGSTEEAQFNEPVH” the “soluble on expression in E. coli” value was “soluble”. In the case of “MEGVELKEEWQDEDFPIPLPEDDSIEADILAITGPEDQPGSLEVNGNKVRKKLMAPDISLTLDPSDGSVLSDDLDESGEIDLDGLDTPSENSNEFEWEDDLPKPKTTEVIRKGSITEYTAAEEKEDGRRWRMFRIGEQDHRVDMKAIEPYKKVISHGGYYGDGLNAIVVFAVCFMPESSQPNYRYLMDNLFKYVIGTLELLVAENYMIVYLNGATTRRKMPSLGWLRKCYQQIDRRLRKNLKSLIIVHPSWFIRTLLAVTRPFISSKFSQKIRYVFNLAELAELVPMEYVGIPECIKQVDQELNGKQDEPKNEQLEHHHHHH”, the “soluble on expression in E. coli” value is reported as “soluble”. With “MEIAKEIKDFLTTRRARITPDQVGLPTGGRRRVAGLRREVVAMLAGVSAEYYVQIERGGVSGVSDEVLYAIATALRLDDEETKHLFTLARAASTRPRRRIAPRARVEVPEPVQALVDAMITAPAVVQNGHLDIVAVNALGRALYADVFDRSDGVPNLARFIFLDRRAGETFPDWNHAADDAVAILRSEAARSPYSAAVTGLVGELATRSDEFRTRWATHDIKAHRRGTKRFHHPVVGDLTLRFEALEVASAAGLTLFGFTAEPGSPSEESLRLLSSWAASDRPEHQHS” the “soluble on expression in E. coli” value was “not soluble”. In the case of “MEIFMNYKKSNGLNYILISDTALFQGCSPVETEKLLSGMQFFTKAYKKGVPVYHAGTPVSDIGIVLHGVVQIENNDLWGNKNIISLAQAGEVFAEAYACIPGEPMMVDVIALEDCEILFLNVPRLFQLASSGKGEYSVLIRNLTMISARKNLLLSRRILHTSSKKIRGRLLSYLSHQAELQGSRYIDIPLNRQQLADYLSLDRSALSKELAKMKQDGLLDYHKNSFVLKNV”, the “soluble on expression in E. coli” value is reported as “not soluble”. For “MEITWEKPKSSSHHRNPSFSSTLLDQIYRSIDDSSPPPPLESIKKKKHHHQQRNASLHEDREISPIYHRRSIAADFERSRRKTDFLRHSNSSSSDSSGFSSSESDSFHGRSKSSASPPSSSRQQPKPIRTSSVDHSSAVQKPKELGGFLRTKSKALKIYSDLKKVKQPISPGGRLATFLNSLFTNAATNPKKHKKTTTVAVVEEPHSSSTCSSASSFSRSCLSKTPSSSGKSKRSVRFCPVNVILDEDSSFTMPYAYNNERLYDNNEAKRVEEHRRVIQAAKDLLRTYHNKNKVTTTNINNVEEDDEDDAASCASSDLFELENLSAIGIERYREELPVYETTRLDNMNRVIATGLIV”, the “soluble on expression in E. coli” value was “soluble”. For “MEKDNICYKTYVEILERELVPAMGCTEPIALAYCSAKARSVLGVLPDKVLVEVSGNIVKNVKSVIVPNSGGRRGIEAAAAVGILAGREDLELEVLSKVTDEDIAGLGAYMEKVEITVAPLDTPYLLDMAVTAKKDGSRARVRIAQEHTNIIEIEKDGKILFEKQAGEEEDCDAPDYSLLTIEKIYDFADTADLEDVKAVLDRQIAYNTAIAEEGLRGDYGANIGRVLMEEYGDRIENRAKAMAAAGSDARMNGCDLPVIINSGSGNQGMTASLPVIEYAKELKCSREKLYRALLLSNLVTLHQKTGIGRLSAYCGAVSAGAGAGAGIAYLEGGDLKVVAHTLVNALAITSGIVCDGAKASCAAKIAVAVDTGILGYKMYKKGQQFYGGDGLVAKGVENTIRNIGRLGKEGMKETDKEIIRIMTE”, the “soluble on expression in E. coli” value was “not soluble”. With “MEKHEEENGLCKAESVDGSLDVWSCQNSDSSSADHLVVMVHGILGSTDDWKFGAEQFVKKMPDKVFVHCSEKNVSALTLDGVDVMGERLAAEVLDIIQRKPNICKISFVAHSLGGLAARYAIGKLYKPANQEDVKDSVADSSQETPKGTICGLEAMNFITVATPHLGSMGNKQVPFLFGFSSIEKVAGLIIHWIFKRTGRHLFLKDEEEGKPPLLRRMVEDTDDCHFISALRAFKRRVAYSNVGHDHVVGWKTASIRRDSELPKWEDSLNEKYPHIVYEELCKACDMEDIPEGENHSDDIEEEMIKGLSSVSWEKVDVSFHSSRQRFAAHSVIQVKNEDMHIEGADVIEHIIDHFHA” the “soluble on expression in E. coli” value was “soluble”. With “MEKIMPEEEYSEFKELILQKELHVVYALSHVCGQDRTLLASILLRIFLHEKLESLLLCTLNDREISMEDEATTLFRATTLASTLMEQYMKATATQFVHHALKDSILKIMESKQSCELSPSKLEKNEDVNTNLTHLLNILSELVEKIFMASEILPPTLRYIYGCLQKSVQHKWPTNTTMRTRVVSGFVFLRLICPAILNPRMFNIISDSPSPIAARTLILVAKSVQNLANLVEFGAKEPYMEGVNPFIKSNKHRMIMFLDELGNVPELPDTTEHSRTDLSRDLAALHEICVAHSDELRTLSNERGAQQHVLKKLLAITELLQQKQNQYTKTNDVR” the “soluble on expression in E. coli” value was “soluble”. With “MEKNFKVAALYCFADLKHYRQLQKPLLDLCQAKDIKGTLLLAQEGINGTVAGSCAAIETLVDFITAEPAFQMPEIKYSWASKMPFHRMKVRLKKEIVTMGVDGVNPLKAVGTYVDPKDWNALIQDEETLLIDTRNDYEYAIGSFQGAVDPRIKTFREFPAWVLKHEADLKKKKKIAMFCTGGIRCEKSTAYVRELGYEQVYHLKGGILKYLETIPKEDSLWWGECFVFDERVSVKHGLEECGRELCRACRSPLNTESKLSPHYEEGVSCDACYNTRSEDDRERFRERHRQFQLSKLRAMHSHQELEHHHHHH” the “soluble on expression in E. coli” value was “not soluble”. In the case of “MEKPASKSKRKPKETSDDVDADVLPEKGLHNSDGFLFYHASFRPLTSAQHRRAEEHGIDLKTKKVFTVEESIQVFENWRKFATEHNMKLAKAPEYISPKKTDRHIFKHQEEHHFWPKLCDGLPHRPACTIKMRAISMMTSSFMENLEWSRLAEEIKAKLHTYETNDDLTMQKAQKLLEKGYAASHVAEILNVSNGKMSSMASKLRTLEARNDPTMIHAFYESTVYFGLKLKKLRRAITTNDDYRIESVRRKVRLEEIGLQLHISEQKCKDLLKIVIETIRTKYTESLEEAGLDEDEAWSKALALVDSRPPIEESQLYKALEIICKHIEKAETTGSLLSHEQLPSIIKSHGITGFQSDRSEYAYLHFRLCGLLMHQLTTGFFEHLRREFPLQIKLHCLLWSYKRLDVWEKICVEEGKTRYETVLKSEIANPLASKMTLKFLKNEKVVEWISDPRPPKNRQKAATRRLETAIESFILYSYNKFGETFKFPAKFRRILHTSKTVRSVLEVVSDPENAEFLSIKEARKTVEDASGCKIAVKIKNKRIVPKLKDESDASEDGESENSDSEDLIKHSHSIERSAFEERRDEIEKVLQRADPSKIRAKFRKKDEIPEEILLSKELRQQKRAMTRAAEKLERLEAKICSAEFIDDGSGCSYSQVDEDLLEREKKRKRKKSEASEVVIGTDQLDTAEDLQGSKKKKHAEVLEGKDHEDTGCSDSQQVMDPEVCEDLVEKEKKKKRKRKISEASEVVIGMNQMERAEDLQRSKKKKHAEILEGNDHEDSENLKKRSKKKKKRKDHDAEFDAELDLDSENLDEEPKKRKKHC”, the “soluble on expression in E. coli” value is reported as “soluble”. With “MEKPIIRGYIRENGSVGVRNYVAVIPVDDLSNSASIGVSKLIRGTVAIPHPYGRLQFGKDLDLLFHVLSGTGANPNVAAAIVIGIEENWANKVADKIAETGKPVEVFPVEGNGDLKVIEKASRKAKEFVQEASEKQRTEVDLSSLVLSIKCGESDTTSGLASNPATGYAVDKLIDYGSTVMFGETSELTGAEDIVASRIQDPVLRDKFMRIYNEYVAFIESQGVDLLGSQPTEGNIKGGLSTIEEKALGNIQKLGTKPITCVLDYLDPLGKGSSRLCFVNTSSAAAEAVTLFAAKGSVLHLFTTGQGNVVGHPIIPVVKISANPKTIATMSEHIDVDVSDLLQLKVSLKEAGERIFNYTIRVANGRLTSAEILQHEEFSPIKLYISA” the “soluble on expression in E. coli” value was “not soluble”. With “MEKSSSNFIQNGKRDHGGKLRQYNYKLEEAEYRYFTEERLFYRRRNPVEKIAQRIPKPQIEGTFTWSDELRCNYDGNTQFLPVEALEGCLPLEKLNQHLKPGFRLEVVVRPSLDPSITTKSPEIRWFGEVTAVCGFYVAIKFVGELNRRPCWFHMLSEDIFDIGSGLKQDPAMKWLQYRPLSLLKPMQCPKFWRRGSTPAPPVPRPTEEILDEFQAELHENRISEPKIFDQLRHLAHRPSRFRLNQRVELLNYLEPTEIRVARILRILGRRLMVMVTAQDYPEDLPSVEAKDRQVQHENVEFWVDESSFFLFPVGFAMINGLRTKATEGYLEHSRRIAEGSGTEKLNLLKVGQKFELLDPLSDLRQSFCVATIRKICKTPGFLIISPDETESDDESFPIHIDNHFMHPVGYAEKFGIKLDRLAGTEPGKFKWEGYLKEKQAEKIPDEMLRPLPSKERRHMFEFGRVLEAVGQNETYWISPASVEEVHGRTVLIEFQGWDSEFSELYDMDSHDLLPAGWCEFFNFKLRHPVLPVNDPNAENGEYD” the “soluble on expression in E. coli” value was “not soluble”. In the case of “MEKVGEDEEKTIEEANNSTEETKSDKEEERIKGTIADQVDPVDSTEEGSTGPSNSHTVVSKDHDFSESDMEDEEQVLEFFRRNHGFSPEVTKRNNFPYVNNSERMVLQFQEDTSAETEQTNEMFHSLNDSNEILEGTKSSSASDEDTEDSSSNSDLDSSLSRYYFDGSLPVSAHVEEFETHQDESLVPKDENQVCNPNWWGMI”, the “soluble on expression in E. coli” value is reported as “not soluble”.
